Reference: publication PMC12631878, “Single‐Cell Transcriptome Analysis Reveals That Hmga2 Regulates Neuroinflammation and Retinal Function by Modulating Müller Cell Autophagy Through PI3K/AKT Signaling Following MCAO‐Induced Retinal Ischemia” (Advanced Science, 2025)

Biological target: PI3K (protein used in biolayer interferometry) (UniProt P26450 1-724)
Test: BLI; biolayer interferometry; format and conditions not told in the main text (Figure S4)

Chain of PI3K (protein used in biolayer interferometry) (P26450 2-724): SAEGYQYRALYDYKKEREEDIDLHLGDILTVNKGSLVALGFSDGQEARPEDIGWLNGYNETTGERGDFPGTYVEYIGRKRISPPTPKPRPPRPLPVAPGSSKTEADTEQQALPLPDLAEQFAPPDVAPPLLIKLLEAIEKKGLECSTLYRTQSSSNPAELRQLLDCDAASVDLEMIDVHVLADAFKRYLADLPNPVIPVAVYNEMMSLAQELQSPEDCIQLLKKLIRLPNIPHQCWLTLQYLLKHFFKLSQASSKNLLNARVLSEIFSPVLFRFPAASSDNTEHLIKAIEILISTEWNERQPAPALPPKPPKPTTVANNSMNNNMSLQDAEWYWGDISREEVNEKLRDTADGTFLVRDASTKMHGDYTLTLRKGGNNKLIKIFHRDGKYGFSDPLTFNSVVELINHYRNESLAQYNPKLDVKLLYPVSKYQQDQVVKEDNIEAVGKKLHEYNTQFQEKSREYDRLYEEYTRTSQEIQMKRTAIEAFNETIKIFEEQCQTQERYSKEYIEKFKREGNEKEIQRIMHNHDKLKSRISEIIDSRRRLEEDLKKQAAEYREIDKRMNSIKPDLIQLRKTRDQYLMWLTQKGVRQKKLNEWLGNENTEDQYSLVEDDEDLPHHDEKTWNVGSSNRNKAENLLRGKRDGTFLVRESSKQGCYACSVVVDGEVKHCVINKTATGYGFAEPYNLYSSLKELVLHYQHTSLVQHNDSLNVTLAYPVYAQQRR

B1: Hmga2 (protein used in biolayer interferometry) (natural protein, UniProt P52927 1-108, looked up)
chain: MSARGEGAGQPSTSAQGQPAAPVPQKRGRGRPRKQQQEPTCEPSPKRPRGRPKGSKNKSPSKAAQKKAETIGEKRPRGRPRKWPQQVVQKKPAQETEETSSQESAEED
notes: Hmga2 as used in the biolayer interferometry assay; The main text has no methods for the BLI experiment
In the case of B1, the Kd is reported as 12 nM.
